Experiments:
[1] = target: Ecl18kI R174A mutant (UniProt O87963)
[2] = target: Ecl18kI R174A mutant (UniProt O87963); experiment: atomic force microscopy
[3] = target: Ecl18kI restriction endonuclease, wild type (UniProt O87963); experiment: tethered particle motion

Q: Which phage lambda DNA cleavage activity, % of wt [1] does the source give for “Ecl18kI R174A mutant (from UniProt O87963 1-305) (enzyme)” here?
A: 0.2%

Q: What about the stoichiometry N [2] of the same substance?
A: 2

Q: “Ecl18kI restriction endonuclease, wild type (from UniProt O87963 1-305) (enzyme)” was tested. Which k unloop (loop breakage rate constant, tetramer to two DNA-bound dimers) [3] did it give?
A: 0.86 s⁻¹
